Data as given in the supplement of paper PMC9170038.

System: MS2 coat protein
Experiment: apparent KD of MS2 coat protein; designed switch direction (-1 OFF switch, 1 ON switch): -1; higher = weaker reporter binding
Method in brief: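 An oligonucleotide input, 200 uM small-molecule ligand, or no input was present during titration of SNAP-549-labelled MS2 coat protein, which was doubled from 0.7 or 1.5 nM to 3 µM. Designed RNA switches had been transcribed on Illumina chips by stalled E. coli RNA polymerase. Apparent KD per design is the median over clusters of curves fitted to normalised cluster fluorescence.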

[1] = input ligand: microRNA oligo, concentration not stated
[2] = Eterna round: R95, input ligand: FMN 200 uM
[3] = Eterna round: R95, input ligand: microRNA oligo, concentration not stated
[4] = Eterna round: R95, input ligand: none

Row | Sequence | apparent KD of MS2 coat protein (input ligand: FMN 200 uM) [nM] | apparent KD of MS2 coat protein (input ligand: none) [nM] | also measured
1 | CAUGAUUGGGAAGGAUAUUGACCUAGUUAGCGCCGAGAAGGUCCCUGUCACAUGAGGAUCACCCAUGUGAGUCUGGUGUUCGAG [Ex NG1 #95] (Eterna round: R96, puzzle: Exclusion NG 1) | 29.7 | 21.6 | apparent KD of MS2 coat protein [1]: 17.7 nM
2 | CAUGAUUUUCGGAAAAUGUACAUGAGGAUCACCCAUGUGACGAGUUACAUGAAAAACAAGCUUUUUGCUCGUCUUAU [Sensor v3 - Turn-off variant 1 - 11] (puzzle: Sensor v3, turn-off variant 1) | – | – | apparent KD of MS2 coat protein [2]: 102 nM; apparent KD of MS2 coat protein [3]: 24.8 nM; apparent KD of MS2 coat protein [4]: 188 nM
3 | CAUGUGCGAAAGGAUAUGGCCCGCGGAUCAGCUCCAGAAGGUUCGACAUGAGGAUCACCCAUGUGAUCUGGUAA [Eternabot (L1) Solution 61] (Eterna round: R97, puzzle: Exclusion 6) | 139 | 369 | –
4 | CAUGUGUUAGGAUAUGCACAGAUCUCCUAAUGGAGAUCUGUGCAGAAGGAACAUGAGGAUCACCCAUGUUGAUG [Mod of Brourd 13 - Jieux - Exclusion 4] (Eterna round: R97, puzzle: Exclusion 4) | 129 | 35.4 | –
5 | CAUUAACAUGAGGAUCACCCAUGUGAGGAUAUGGAUACAUAAUACUACUACAUAAAUACCAGAAGGCGCAUACU [Maybaline] (puzzle: Exclusion 1) | – | – | apparent KD of MS2 coat protein [2]: 31.4 nM; apparent KD of MS2 coat protein [3]: 28 nM; apparent KD of MS2 coat protein [4]: 55.1 nM
6 | CAUUACUGCAAGCUUUGGGACAUGAGGAUCACCCAUGUUCGUCUUAUUGAUCUAGGUACGCUGACGUACCUAGAUCU [JL-sv1-2.27 Brourd mod] (puzzle: Sensor v3, turn-off variant 1) | – | – | apparent KD of MS2 coat protein [2]: 17 nM; apparent KD of MS2 coat protein [3]: 28.9 nM; apparent KD of MS2 coat protein [4]: 15.4 nM
7 | CCAAGCUUAUUCAUUAACCACAUGAGGAUCACCCAUGUCUAGGCAAUUAUGACUUGCCCAUCAGGUGCUCGUCUUAU [Sensor-V1 #33] (Eterna round: R97, puzzle: Sensor, turn-off variant 1) | 68.7 | 72.3 | –
8 | CCAAGCUUGUUCAUUAUCCACAUGAGGAUCACCCAUGUCUUGGCAAUUAUGACCUGCCCGUCAGGAGCUCGUCUUAU [Sensor-V1 #37] (Eterna round: R97, puzzle: Sensor, turn-off variant 1) | 316 | 346 | –
9 | CCAAGCUUUUUCAUUAACAACAUGAGGAUCACCCAUGUGUAAGCAAUUAUGUUUGGGCUCUUUAGUGCUCGUCUUAU [JR_STOV1_Sub042] (Eterna round: R97, puzzle: Sensor, turn-off variant 1) | 17.4 | 16.7 | –
10 | CCAAGCUUUUUCAUUAACAACAUGAGGAUCACCCAUGUUUAAGCUAUUACUUUUGGGCUCUUUAGUGCUAGUCUUAU [JR_STOV1_Sub039] (Eterna round: R97, puzzle: Sensor, turn-off variant 1) | 18.6 | 19.4 | –
11 | CCACGACAUGAGGAUCACCCAUGUGAGGAUAUGGCCUGAAAAGCGUGAGCAGUAUCAAUCAGAAGGCGCGUGGG [salish99_ex1_r4_061] (Eterna round: R97, puzzle: Exclusion 1) | 116 | 76.4 | –
12 | CCAGAUGCAGGAUAUGUAAAAUUUGACAUGAGGAUCACCCAUGUAGAUCCUGAAUUUCCUGCAGAAGGGCAUCUGG [Mat - Exclusion 5 - Eli Mod - D20] (Eterna round: R97, puzzle: Exclusion 5) | 288 | 105 | –
13 | CCAGCAAAUGUAAGGAUAUGCUGGUCCUUGGAUCAGCAGAAGGUACAUGAGGAUCACCCAUGUAGGUAAGCUGG [Eli bmx4 4.63] (Eterna round: R97, puzzle: Brourd's mod of Exclusion 4) | 118 | 23.5 | –
14 | CCAGCGUAUGUUAGGAUAUGCUGGUCCUUGGAUCAGCAGAAGGAACAUGAGGAUCACCCAUGUAGAAUCGUUGG [Mod of JL 15 - Jieux - Brourd's mod of Exclusion 4] (Eterna round: R97, puzzle: Brourd's mod of Exclusion 4) | 35 | 20.3 | –
15 | CCAGGCUGUGUGAGGAUAUGCUGGUCCUUGGAUCAGCAGAAGGCACAUGAGGAUCACCCAUGUGAAAAGCUUGG [Mat - Exclusion 4 - JL Mod - D91] (puzzle: Brourd's mod of Exclusion 4) | – | – | apparent KD of MS2 coat protein [3]: 16.2 nM
16 | CCAGUGUAAGGAUAUGUAUACGUCUCUCUGGUAUGAGGGCGGCAGAAGGUACAUGAGGAUCACCCAUGUCAUAU [Eternabot (L2) Solution 94] (Eterna round: R97, puzzle: Exclusion 4) | 37.3 | 22.5 | –
17 | CCAUAGGGAGGAUAUCCAAUAUAUGACAUGAGGAUCACCCAUGUUUCCACUCGUACCUCCGGAGAAGGCCCAUACC [Ex5 #9] (Eterna round: R97, puzzle: Exclusion 5) | 22 | 27 | –
18 | CCAUGUUAGCAGGAUAUGCUAUUAAUCUUUUAUGCAGAAGGGCUUACAUGAGGAUCACCCAUGUAUUAAGUCUU [JR_E6_Sub076] (puzzle: Exclusion 6) | – | – | apparent KD of MS2 coat protein [3]: 11.9 nM
19 | CCCACAAGCUUUUUGCUCGACAUGAGGAUCACCCAUGUUGAAUGGGUUAGAUGUGUGUGAAACAUAUAUAUUUACCU [-24.2, -47 kcal, A 27%] (Eterna round: R97, puzzle: Sensor, turn-off variant 1) | 25.5 | 26.4 | –
20 | CCCACAGGCUUUUUGCUCGACAUGAGGAUCACCCAUGUUGAAUGGGUUGUGUGUGUGUGAUACAUAUAUAUGGUCCU [-25.5, -50.5 kcal, A 21%] (Eterna round: R97, puzzle: Sensor, turn-off variant 1) | 142 | 158 | –
21 | CCCAGUUAGGAAGGAUAUUGUACAUGAGGAUCACCCAUGUAAUAAAUGAGGAUCACGGAUGUAUACAAGAAGGUCCGGAUAGGC [Ostracism 9 - Jieux - Exclusion NG 2] (Eterna round: R96, puzzle: Exclusion NG 2) | – | – | apparent KD of MS2 coat protein [1]: 59.3 nM
22 | CCCAGUUAGGAAGGAUAUUGUACAUGAGGAUCACCCAUGUAAUAAAUGAGGAUCUCGGAUGUAUACAAGAAGGUCCGGAUAGGC [Ostracism 10 - Jieux - Exclusion NG 2] (Eterna round: R96, puzzle: Exclusion NG 2) | – | – | apparent KD of MS2 coat protein [1]: 58.5 nM
23 | CCCAUGCCUGAGGAUAUGCUGUACAAAAGUACUGCAGAAGGCGGGACAUGAGGAUCACCCAUGUGGCGAAAGCC [Omei Ex G6] (Eterna round: R97, puzzle: Exclusion 6) | 67 | 326 | –
24 | CCCAUGUCAGGAUAUUAAUUGGACGGGAAAUCCCGCCCACUUGAGAAGGGACAUGAGGAUCACCCAUGUAAAAC [Esatedbe] (Eterna round: R97, puzzle: Exclusion 4) | 54.7 | 385 | –
25 | CCCGGGUUUGUGAGGAUAUCGGGCCCGAAAGGGCCCGAGAAGGCACAUGAGGAUCACCCAUGUAAGGGCCCGGG [-42.9, -40.9 kcal, A 23%, 0-5cbis] (Eterna round: R97, puzzle: Brourd's mod of Exclusion 4) | 29.3 | 26.1 | –
26 | CCCGUCGAUGUAGGAUAUGCCCGGGUCUCCCGGGCAGAAGGACAUGAGGAUCACCCAUGUUCAUGAGGAUCACCCGUGAAUGGG [Double but mutated MS2] (Eterna round: R96, puzzle: Exclusion NG 1) | 13.1 | 16.3 | apparent KD of MS2 coat protein [1]: 13 nM
27 | CCCGUCGAUGUAGGAUAUGCCCGGGUCUCCCGGGCAGAAGGACAUGAGGAUCACCCAUGUUGAUGAGGAUCACCCAUCAAUGGG [Double but mutated MS2] (Eterna round: R96, puzzle: Exclusion NG 1) | 16.9 | 20.7 | apparent KD of MS2 coat protein [1]: 15.8 nM
28 | CCCGUGUUAGGAUAUAUGGAAGAGCGGACGGGCGCUCCAAGGUAGAAGGAACAUGAGGAUCACCCAUGUAAUAA [Teleerdion] (Eterna round: R97, puzzle: Exclusion 4) | 42.6 | 28.6 | –
29 | CCCUCACAUGAGGAUCACCCAUGUCAGGAUAUCUCAGUGCGUCCACACGGACACAUCAAGAGAAGGGACAAAAC [Maceedesbi] (Eterna round: R97, puzzle: Exclusion 1) | 26.3 | 18.6 | –
30 | CCCUUGUGAGGAUAUUUUUAAAAUGCUAACCACAAUUUUAUGAAGAAGGUACAUGAGGAUCACCCAUGUUUCUC [Tried to obey the law of the pack] (Eterna round: R97, puzzle: Exclusion 4) | 20 | 21 | –
